Results: paper PMC9198812, “Residues located in the primase domain of the bacteriophage T7 primase-helicase are essential for loading the hexameric complex onto DNA”

Key:
[1] = target: gp4 WT (T7 primase-helicase) (bacteriophage T7, UniProt P03692 1-566); experiment: double-filter binding; 1 mM [beta,gamma-CH2] dTTP, 10 mM MgCl2; Filter binding: 40 mM Tris-HCl pH 7.5, 50 mM potassium glutamate, 10 mM MgCl2, 5 mM DTT, 1 mM [beta,gamma-CH2] dTTP, 30 min, 25 C; mass photometry: 40 mM Tris-HCl pH 7.5, 150 mM KCl, 10 mM MgCl2, 25 C, 8.7 nM gp4 hexamer, 10 nM ssDNA; conditions: protein: recombinant; tags: His (implied: pET28, TALON); chain copies: 6; label: 5'-32P; single strand
gp4-Y111A = gp4-Y111A (bacteriophage T7, UniProt P03692 1-566, Y111A); experiment: as above; conditions: protein: recombinant; tags: His (implied: pET28, TALON); chain copies: 6; label: 5'-32P; single strand

ATGACCATGATTTCGACGTTTTTTTTTTTGGGGATCCTCTAACCTGCGCA (ssDNA) [50-nt ssDNA, 5'-32P] was tested, and the Kd [1] was 14 nM and the Kd (gp4-Y111A) was 93 nM.
